Test results from publication PMC12751051, “Penaeus monodon fibrinogen-related lectin interacts with lipopolysaccharide and β-1,3-glucan binding protein to activate the innate immune system” (Biochemical Journal, 2025).

T1: recombinant Penaeus monodon lipopolysaccharide and β-1,3-glucan binding protein (Penaeus monodon, UniProt H9MER4 1-366)
T1 construct: The construct holds the protein's own N-terminus (signal peptide); also called rPmLGBP; PmLGBP; source: insect cell expression system (Bac-to-Bac baculovirus), purified (Ni-NTA); not shown: His6, C-terminal, kept
T1 sequence (looked up): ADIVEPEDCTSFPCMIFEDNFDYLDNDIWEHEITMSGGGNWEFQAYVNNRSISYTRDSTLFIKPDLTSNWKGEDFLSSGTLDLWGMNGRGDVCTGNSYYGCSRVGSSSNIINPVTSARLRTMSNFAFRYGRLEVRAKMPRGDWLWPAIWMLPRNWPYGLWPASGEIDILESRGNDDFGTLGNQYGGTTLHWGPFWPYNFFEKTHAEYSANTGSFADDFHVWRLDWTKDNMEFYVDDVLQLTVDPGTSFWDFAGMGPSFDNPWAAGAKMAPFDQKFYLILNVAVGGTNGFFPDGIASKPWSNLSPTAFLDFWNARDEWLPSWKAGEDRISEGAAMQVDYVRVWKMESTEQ

B1: recombinant Penaeus monodon fibrinogen-related protein (natural protein, UniProt A0A068LKH5 1-312, looked up)
chain: TTERTDTAEPQQPGGCHALPSLLQSAGSSLTCIAASLINCQANENDQLSIAQDLRDTMSEVRRAIVDAERRRRRPRHCRDLQLDGDSESGVRRVFPFRSSPDAAATVYCDQETDGGGWTVFQRRLKLPVREDFYRTWVEYELGFGHMDGGEFWLGLDLVHRLTSTGLQEMRIDLTDYEDNAKWAKYGVFHLGDASTKYRLKVGRYNGTAGDGFGSGRHDGHPFTTHDNDNDGDGANCAARYRGAWWYDKCHISNLNGFPYEGDHESYADGIEWQPWRGYHYSLKTTTMMIRPAF
notes: also called rPmFREP; PmFREP; source: insect cell expression system (baculovirus), purified (Ni-NTA)

Legend:
[1] = biological target: recombinant Penaeus monodon lipopolysaccharide and β-1,3-glucan binding protein (Penaeus monodon) (UniProt H9MER4); assay: BLI; BLItz; rPmLGBP immobilised on Octet SA biosensor activated with EDC and NHS; analytes in 20 mM HEPES pH 7.5, 150 mM NaCl, 10 mM CaCl2; association 4 minutes, dissociation 4 minutes; curves globally fitted
[2] = biological target: Penaeus monodon lipopolysaccharide and β-1,3-glucan binding protein (endogenous, hemolymph) (Penaeus monodon (endogenous in shrimp hemolymph))
[3] = biological target: T2, rPmFREP CRD (Penaeus monodon, UniProt A0A068LKH5); assay: GlcNAc-resin affinity column, elution with free GlcNAc, anti-His Western blot; type: binding; conditions: 8 ml GlcNAc resin; eluted with 100 mM GlcNAc; proteins loaded at 5 µM each; immobilised ligand
T2 construct: XEEL signal peptide, His6 tag; insect cells; lacks oligomeric structure

[4] = biological target: T1, recombinant Penaeus monodon …; assay: BLI; BLItz; rPmLGBP immobilised on Octet SA biosensor activated with EDC and NHS; analytes in 20 mM HEPES pH 7.5, 150 mM NaCl, 10 mM CaCl2; association 4 minutes, dissociation 4 minutes; curves globally fitted; conditions: both partners purified
[5] = biological target: T1, recombinant Penaeus monodon …; assay: curdlan binding assay; rPmFREP and rPmLGBP, 0.1 µM each, incubated with 1 mg curdlan in 20 mM HEPES pH 7.5, 150 mM NaCl, 10 mM CaCl2, 4°C, 16 hours; curdlan collected by centrifugation, washed three times, eluted with 2% SDS; anti-His Western blot, densitometry of rPmFREP; conditions: both partners purified

| Molecule | Kd [1] [nM] | PO activity in hemolymph of shrimp injected with the recombinant protein (1 nmol/g shrimp) and then infected with VP AHPND, against rMBP-injected control shrimp [2] [fold] | GlcNAc-resin affinity column, elution with free GlcNAc, anti-His Western blot [3] | Kd [4] [nM] | fold more rPmFREP in the curdlan elution fraction with rPmLGBP than without it [5] [fold] |
| --- | --- | --- | --- | --- | --- |
| rPmFREP CC-MBP (domain or fragment) | 220 | 3 | – | – | – |
| CC(=O)N[C@H]1C(O)O[C@H](CO)[C@@H](O)[C@@H]1O (stereo partly drawn) [N-acetylglucosamine] | – | – | rPmFREP and rPmFREP CRD were bound to the GlcNAc column | – | – |
| B1 | – | 3.4 | – | 340 | ~3.1 |
